Data reported in patent US20220144960A1 (NANJING LEGEND BIOTECH, published 2022).
Read-outs that look alike come from different tables or passages of the source.

T1: rhesus CD30 ECD (rhesus, UniProt P28908 19-379 (human entry))
T1 construct: Produced in house; also called recombinant rhesus CD30; rhesus CD30 protein
T1 chain: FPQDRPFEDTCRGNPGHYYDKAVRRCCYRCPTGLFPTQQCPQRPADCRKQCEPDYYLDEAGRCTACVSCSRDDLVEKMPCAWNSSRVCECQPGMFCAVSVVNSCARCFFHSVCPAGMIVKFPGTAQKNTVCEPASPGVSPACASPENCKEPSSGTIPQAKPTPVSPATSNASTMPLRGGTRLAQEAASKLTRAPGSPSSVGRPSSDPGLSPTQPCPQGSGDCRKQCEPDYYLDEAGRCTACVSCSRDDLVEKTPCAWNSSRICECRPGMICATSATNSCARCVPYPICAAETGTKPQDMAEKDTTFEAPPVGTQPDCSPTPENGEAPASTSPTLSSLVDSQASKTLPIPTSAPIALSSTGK

T2: recombinant human CD30 extra cellular domain (ECD) protein (human, UniProt P28908 19-379)
T2 construct: Bought from R&D systems; also called rhCD30; human CD30 ECD
T2 sequence: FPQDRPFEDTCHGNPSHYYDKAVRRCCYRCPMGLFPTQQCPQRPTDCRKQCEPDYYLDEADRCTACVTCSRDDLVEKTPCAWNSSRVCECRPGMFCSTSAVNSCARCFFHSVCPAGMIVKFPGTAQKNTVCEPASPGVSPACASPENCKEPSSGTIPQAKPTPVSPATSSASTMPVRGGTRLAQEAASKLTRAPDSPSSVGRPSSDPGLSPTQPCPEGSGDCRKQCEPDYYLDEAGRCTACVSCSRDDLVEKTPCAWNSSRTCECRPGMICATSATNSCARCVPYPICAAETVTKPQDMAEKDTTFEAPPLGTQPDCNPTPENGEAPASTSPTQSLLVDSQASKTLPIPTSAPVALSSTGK

T3: CD30 on CD30-expressing tumor cell lines (HH, MJ, H9) (UniProt P28908 19-595)
T3 sequence (looked up): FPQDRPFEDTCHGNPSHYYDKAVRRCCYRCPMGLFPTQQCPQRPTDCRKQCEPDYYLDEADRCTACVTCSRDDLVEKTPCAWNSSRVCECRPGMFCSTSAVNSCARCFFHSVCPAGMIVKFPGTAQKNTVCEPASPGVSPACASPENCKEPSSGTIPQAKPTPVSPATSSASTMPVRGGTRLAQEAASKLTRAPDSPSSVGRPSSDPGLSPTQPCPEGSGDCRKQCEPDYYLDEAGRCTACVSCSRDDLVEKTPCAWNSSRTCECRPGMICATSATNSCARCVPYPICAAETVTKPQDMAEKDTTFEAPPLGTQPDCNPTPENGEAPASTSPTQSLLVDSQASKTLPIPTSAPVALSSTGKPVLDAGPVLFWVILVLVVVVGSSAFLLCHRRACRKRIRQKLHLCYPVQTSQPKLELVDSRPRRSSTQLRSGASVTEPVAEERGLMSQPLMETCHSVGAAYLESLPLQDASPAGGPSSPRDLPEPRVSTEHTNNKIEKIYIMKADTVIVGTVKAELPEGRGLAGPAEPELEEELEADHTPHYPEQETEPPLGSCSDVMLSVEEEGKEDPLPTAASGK


What was measured:
rhesus CD30 ECD = target: T1, rhesus CD30 ECD; experiment: ELISA on rhesus CD30 ECD protein; member of the group by paragraph 437
[1] = target: T2, recombinant human CD30 extra cellular …; experiment: SPR Biacore T200, His-tagged sdAb/Fab captured, 100.0 nM human CD30 as analyte, single curve
Procedure: Some of these unique binders were subjected to for further characterization by surface plasmon resonance (SPR) on a BIAcore T200 instrument (GE Healthcare). The experiment was carried out as follows. The crude sdAb/Fab proteins were captured through an affinity tag (6×Histidine tag) onto the sensorchip. High-concentration (100.0 nM) of human CD30 (R&D systems, Cat. #6126-CD) flowed over the sensorchip surface, and were allowed to bind the antibody fragments for 300 s followed by injection of the running buffer to allow dissociation of the complex. On-rate ([…] and off-rate (kd) were roughly calculated based on one association and dissociation curve, and were used to estimate the equilibrium dissociation constant (KD). 5F11 scFv (SEQ ID NO:216, prepared according to WO2017066122) was used as a positive control. Data were summarized in Table 3 below. The first 10 antibodies in Table 3 were sdAbs with amino acid sequence ID numbers summarized in Table 1, the last antibody was 5F11 scFv, and the remainings were human Fabs with CDR and scFv amino acid sequence ID numbers in Table 2.

[2] = target: T4, human CD30 CRD6 (E282-K379) Fc fusion protein with human IgG1 Fc fragment at the C terminus (human); experiment: ELISA on the CD30 fragment CRD6, absorbance OD 450 nm; sdAb concentration not given
T4 construct: also called CRD6 construct
T4 sequence (chain, as listed by the source limits assumed): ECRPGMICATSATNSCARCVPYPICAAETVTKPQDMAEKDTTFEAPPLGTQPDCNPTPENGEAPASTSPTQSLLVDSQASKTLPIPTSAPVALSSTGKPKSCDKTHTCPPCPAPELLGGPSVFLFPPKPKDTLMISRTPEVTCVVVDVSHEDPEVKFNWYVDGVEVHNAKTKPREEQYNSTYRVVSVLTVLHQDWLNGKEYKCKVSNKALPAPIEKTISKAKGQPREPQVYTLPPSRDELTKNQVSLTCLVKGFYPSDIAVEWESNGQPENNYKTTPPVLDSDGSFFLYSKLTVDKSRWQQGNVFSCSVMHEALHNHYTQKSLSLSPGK

[3] = target: T3, CD30 on CD30-expressing tumor cell …; experiment: cell-based or functional assay
[4] = target: T3, CD30 on CD30-expressing tumor cell …; experiment: cell-based or functional assay; remark: listed apart in the source
[5] = target: T3, CD30 on CD30-expressing tumor cell …; experiment: cell-based or functional assay; remark: listed apart in the source

Row | Binder | binding result (rhesus CD30 ECD) | Kd [1] | koff [1] | kon [1] | rhCD30 Binding (RU) [1] | binding result [2] | % H9 cell lysis E:T = 5:1 (LDH assay, CAR T cells) [3] | % MJ cell lysis E:T = 1:1 (LDH assay, CAR T cells) [3] | % MJ cell lysis E:T = 0.5:1 (LDH assay, CAR T cells) [4] | % H9 cell lysis E:T = 2:1 (LDH assay, CAR T cells) [5] | % MJ cell lysis E:T = 1:1 (LDH assay, CAR T cells) [5]
1 | AS48463 sdAb (VHH, Camel sdAb) VHH: QVHLMESGGGSVQAGETLRLSCTASGFTFANSDMGWYRQAPGNACELVSIISSHGGTTYYVDSVKGRFTISRHNAENTVYLRMTSLKPEDTALYYCVADPRSNCRGGYCCGYWGPGTQVTVSS | binds | 30 nM | 0.01 s⁻¹ | 340000 M⁻¹ s⁻¹ | 106 RU | binds | – | – | – | – | –
2 | AS48542dis-bbz CAR (other) QMQLVESGGGSVQAGETLRLSCTTSAFTFDGPDMAWYRQAPGNECVLVSIISADGRTYYADSVKGRFTISRDNAKNTVFLNLNSLQPEDTAVYYCALDPRKNCRGGYCCANWGPGTQVTVSSGGGGSQMQLVESGGGSVQAGETLRLSCTTSAFTFDGPDMAWYRQAPGNECVLVSIISADGRTYYADSVKGRFTISRDNAKNTVFLNLNSLQPEDTAVYYCALDPRKNCRGGYCCANWGPGTQVTVSSTTTPAPRPPTPAPTIASQPLSLRPEACRPAAGGAVHTRGLDFACDIYIWAPLAGTCGVLLLSLVITLYCKRGRKKLLYIFKQPFMRPVQTTQEEDGCSCRFPEEEEGGCELRVKFSRSADAPAYKQGQNQLYNELNLGRREEYDVLDKRRGRDPEMGGKPRRKNPQEGLYNELQKDKMAEAYSEIGMKGERRRGKGHDGLYQGLSTATKDTYDALHMQALPPR | – | – | – | – | – | – | 81% | 56.4% | – | – | –
3 | AS47863 sdAb (VHH, Camel sdAb) VHH: QVQLEESGGGSVQAGETLRLSCTASGSTFGDSDMGWYRQAPGNACELVSIISSDGRTYYVDSVKGRFTISQDNAVSTVYLQMNSLKPEDTGVYYCAADLRQYCRDGRCCGYWGQGTQVTVSS | binds | 29 nM | 0.0042 s⁻¹ | 140000 M⁻¹ s⁻¹ | 119 RU | binds | – | – | – | – | –
4 | AS48542dil-bbz CAR (other) QMQLVESGGGSVQAGETLRLSCTTSAFTFDGPDMAWYRQAPGNECVLVSIISADGRTYYADSVKGRFTISRDNAKNTVFLNLNSLQPEDTAVYYCALDPRKNCRGGYCCANWGPGTQVTVSSGGGGSGGGGSGGGGSQMQLVESGGGSVQAGETLRLSCTTSAFTFDGPDMAWYRQAPGNECVLVSIISADGRTYYADSVKGRFTISRDNAKNTVFLNLNSLQPEDTAVYYCALDPRKNCRGGYCCANWGPGTQVTVSSTTTPAPRPPTPAPTIASQPLSLRPEACRPAAGGAVHTRGLDFACDIYIWAPLAGTCGVLLLSLVITLYCKRGRKKLLYIFKQPFMRPVQTTQEEDGCSCRFPEEEEGGCELRVKFSRSADAPAYKQGQNQLYNELNLGRREEYDVLDKRRGRDPEMGGKPRRKNPQEGLYNELQKDKMAEAYSEIGMKGERRRGKGHDGLYQGLSTATKDTYDALHMQALPPR | – | – | – | – | – | – | 84% | 64.3% | – | – | –
5 | AS48542bbz CAR (other) QMQLVESGGGSVQAGETLRLSCTTSAFTFDGPDMAWYRQAPGNECVLVSIISADGRTYYADSVKGRFTISRDNAKNTVFLNLNSLQPEDTAVYYCALDPRKNCRGGYCCANWGPGTQVTVSSTTTPAPRPPTPAPTIASQPLSLRPEACRPAAGGAVHTRGLDFACDIYIWAPLAGTCGVLLLSLVITLYCKRGRKKLLYIFKQPFMRPVQTTQEEDGCSCRFPEEEEGGCELRVKFSRSADAPAYKQGQNQLYNELNLGRREEYDVLDKRRGRDPEMGGKPRRKNPQEGLYNELQKDKMAEAYSEIGMKGERRRGKGHDGLYQGLSTATKDTYDALHMQALPPR | – | – | – | – | – | – | 64% | 58.5% | 58.4% | 50% | 55%
6 | AS53574-AS48542bil-bbz CAR (other) QVKLVESGGGSVQAGGSLRLSCAASGYIYSSNCMGWFRQAPGKEREWVARIHTGSGSTYYADSVKGRFTISQDNAKNTVYLQMNSLRPEDTAMYDCAAGRVVLGAVVCTNEYWGQGTQVTVSSGGGGSGGGGSGGGGSQMQLVESGGGSVQAGETLRLSCTTSAFTFDGPDMAWYRQAPGNECVLVSIISADGRTYYADSVKGRFTISRDNAKNTVFLNLNSLQPEDTAVYYCALDPRKNCRGGYCCANWGPGTQVTVSSTTTPAPRPPTPAPTIASQPLSLRPEACRPAAGGAVHTRGLDFACDIYIWAPLAGTCGVLLLSLVITLYCKRGRKKLLYIFKQPFMRPVQTTQEEDGCSCRFPEEEEGGCELRVKFSRSADAPAYKQGQNQLYNELNLGRREEYDVLDKRRGRDPEMGGKPRRKNPQEGLYNELQKDKMAEAYSEIGMKGERRRGKGHDGLYQGLSTATKDTYDALHMQALPPR | – | – | – | – | – | – | 54% | 60.5% | – | – | –
7 | AS48508 sdAb (VHH, Camel sdAb) VHH: EVQLVESGGGSVQAGGSLRLSCTASRFTFDGPDMAWYRQAPGNACELVSIISADGRTYYTDSVKGRFTISRDNAKNTVFLYLNSLQPEDTAVYYCAPDPRRNCRGGYCCGNWGPGTQVTVSS | binds | 31 nM | 0.0061 s⁻¹ | 200000 M⁻¹ s⁻¹ | 69.8 RU | binds | – | – | – | – | –

The next lines start with the values.

Row | binding result (rhesus CD30 ECD) | Kd [1] | koff [1] | kon [1] | rhCD30 Binding (RU) [1] | binding result [2] | % H9 cell lysis E:T = 5:1 (LDH assay, CAR T cells) [3] | % MJ cell lysis E:T = 1:1 (LDH assay, CAR T cells) [3] | % MJ cell lysis E:T = 0.5:1 (LDH assay, CAR T cells) [4] | % H9 cell lysis E:T = 2:1 (LDH assay, CAR T cells) [5] | % MJ cell lysis E:T = 1:1 (LDH assay, CAR T cells) [5] | Binder
8 | binds | 19 nM | 0.0024 s⁻¹ | 120000 M⁻¹ s⁻¹ | 60.8 RU | binds | – | – | – | – | – | AS48542 sdAb (VHH, Camel sdAb) VHH: QMQLVESGGGSVQAGETLRLSCTTSAFTFDGPDMAWYRQAPGNECVLVSIISADGRTYYADSVKGRFTISRDNAKNTVFLNLNSLQPEDTAVYYCALDPRKNCRGGYCCANWGPGTQVTVSS
9 | binds | 25 nM | 0.0023 s⁻¹ | 93000 M⁻¹ s⁻¹ | 83.5 RU | binds | – | – | – | – | – | AS48433 sdAb (VHH, Camel sdAb) VHH: QIQLVESGGGSVQAGETLRLSCTASGSTFGDSDMGWYRQAPGNACELVSIISSDGRTYYVDSVKGRFTISQDNAVSTVYLQMNSLNPEDTGVYYCAADLRLNCRDGRCCGYWGQGTQVTVSS
10 | binds | 76 nM | 0.0046 s⁻¹ | 61000 M⁻¹ s⁻¹ | 59.2 RU | binds | – | – | – | – | – | AS54233 sdAb (VHH, Camel sdAb) VHH: QVQLVESGGGSVQAGETLRLSCTASGFTFDGPDMAWYRQAPGNECELVSIISADGRTYYTDSVKGRFTASQDNAKNTVSLYLKSLQPEDTAVYYCAADPRRNCRGNCCGNWGPGTQVTVSS
11 | binds | 130 nM | 0.0069 s⁻¹ | 56000 M⁻¹ s⁻¹ | 284 RU | binds | – | – | – | – | – | AS53750 sdAb (VHH, Camel sdAb) VHH: EVQLVESGGGLVQPGGSLRLSCTASGFTDDGPDMAWYRRAPGNECELVSIISADGRTYYTDSVKGRFTISRDNAKNTVFLYLNSLQPEDTAVYYCAPDPRRNCRGGDCCGNWGPGTQVTVSS
